Source: the supplement of paper PMC9170038

Tested on: MS2 coat protein
Experiment: apparent KD of MS2 coat protein; designed switch direction (-1 OFF switch, 1 ON switch): -1; higher = weaker reporter binding
How it was run: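 For each design, the apparent KD is the median over clusters of curves fitted to normalised cluster fluorescence. Clusters held RNA switches with common flanks, transcribed on Illumina chips by stalled E. coli RNA polymerase. These were titrated with SNAP-549-labelled MS2 coat protein, doubling from 0.7 or 1.5 nM to 3 µM, without input, with 200 uM small-molecule ligand, or with an oligonucleotide input.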

[1] = Eterna round: R95, input ligand: microRNA oligo, concentration not stated
[2] = Eterna round: R95, input ligand: FMN 200 uM
[3] = Eterna round: R95, input ligand: none
[4] = input ligand: microRNA oligo, concentration not stated

| Sequence | apparent KD of MS2 coat protein [1] | apparent KD of MS2 coat protein (input ligand: FMN 200 uM) | apparent KD of MS2 coat protein (input ligand: none) | apparent KD of MS2 coat protein [2] | apparent KD of MS2 coat protein [3] | apparent KD of MS2 coat protein [4] |
| --- | --- | --- | --- | --- | --- | --- |
| GGUGCGUCUGUGAGGAUAUGCUGGUCCUUGGCUCGGCAGAAGGCACAUGAGGAUCACCCAUGUGGUGUCGUGCC [salish99_Bmod_ex4_058] (puzzle: Brourd's mod of Exclusion 4) | 16.7 nM | – | – | – | – | – |
| AGGUCACAUGAGGAUCACCCAUGUCAGGAUAUCUACAUUGAAGCCUCGGCUUCAAUGUAGAGAAGGGACAAUUA [E1/6-B2] (Eterna round: R97, puzzle: Exclusion 1) | – | 209 nM | 72.2 nM | – | – | – |
| UGUGCGUAUGUGAGGAUAUGCUGGUCCUUGGAUCGGCAGAAGGCACAUGAGGAUCACCCAUGUGGUGUCGUUCU [salish99_Bmod_ex4_096] (puzzle: Brourd's mod of Exclusion 4) | 188 nM | – | – | – | – | – |
| AAGAAGCGAGGAUAUACAUGAGGAUCACCCAUGUACCUCAUAAAGAAAAGAAAAGAAAGUAGAAGGCGCAAAAG [Default title] (puzzle: Exclusion 3) | 23.1 nM | – | – | 24.2 nM | 18.4 nM | – |
| AGAUGGCGAGGAUAUACAUGAGGAUCACCCAUGUGAAGAUAUAAAGUGAGGAAGAAAAGUAGAAGGCGCUGUCA [Mat - Exclusion 3 - Mod of Salish D25] (puzzle: Exclusion 3) | 48.8 nM | – | – | 225 nM | 63.7 nM | – |
| UCAGUUAUGCGAGGAUAUCGACCUUUCCUCUUAACAUGAGGAUCACCCAUGUGCUAAUCCUUCAACGAGAAGGCGCUCAAACUC [JR_ExcNG2_Sub070] (Eterna round: R96, puzzle: Exclusion NG 2) | – | 260 nM | 209 nM | – | – | 170 nM |
| UUCCUCGUUGUGAGGAUAUCGUAUUCUUUUUGUUACGAGAAGGCACAUGAGGAUCACCCAUGUUUCUUGAUGUU [JR_BMOE4_Sub069] (puzzle: Brourd's mod of Exclusion 4) | 19.6 nM | – | – | – | – | – |
| CAGAUGGGUAACUACACCCACAUGAGGAUCACCCAUGUACACAUAGCUUACGCUCGUCUUAAGCGUGUUUUCGUAGC [Eternabot (L2) Solution 10] (Eterna round: R97, puzzle: Sensor, turn-off variant 1) | – | 32 nM | 33.4 nM | – | – | – |
| UUUAAUUUUUUUUUUUUACAAGCUUUUUGCUCGUCUUAUACAUGAGGAUCACCCAUGUGGGUGGAAAAUAAAUUAUC [JMF 92] (puzzle: Sensor v3, turn-off variant 2) | 45 nM | – | – | 33.9 nM | 88.4 nM | – |
| CGGUAGUAUGUAGGAUAUCGGUCAGUUUCUGAUCGAGAAGGACAUGAGGAUCACCCAUGUAAAACGACCGGUUUCUGGUUGCCG [JL ENG1 3.55] (Eterna round: R96, puzzle: Exclusion NG 1) | – | 15.4 nM | 15.6 nM | – | – | 12 nM |
| GGUAGGUGUGACUUGGGUGACAUGAGGAUCACCCAUGUCACAAGCUUGUUGCUCGCCUUGUAAUUAACCCAUGUCAC [LRO Sensor-off var1-29 mod of Stov1-13-A1 by Brourd] (Eterna round: R97, puzzle: Sensor, turn-off variant 1) | – | 21.5 nM | 21.5 nM | – | – | – |
| AAUAAUUGUGACUUGGGUGACAUGAGGAUCACCCAUGUCACAAGCUUGUUGCUCGCCUUAUAAUUAACCCAUGUCAC [LRO Sensor-off var1-26 mod of Stov1-13-A1 by Brourd] (Eterna round: R97, puzzle: Sensor, turn-off variant 1) | – | 70.5 nM | 80.6 nM | – | – | – |
| GGUCUUCAAGUCAGGAUAUCGUCUAGUCGGUCUGGCGAGAAGGGACAUGAGGAUCACCCAUGUCGUCUCAUCAG [Ex4 #14] (Eterna round: R97, puzzle: Brourd's mod of Exclusion 4) | – | 30.6 nM | 19.9 nM | – | – | – |
| UAAAAGGUAGGAUAUACGAAAAAAAAGGGUAGAAAAAAAACACAUGAGGAUCACCCAUGUAGAAGGACCAAAAU [salish99_ex2_r3_041] (puzzle: Exclusion 2) | 28.6 nM | – | – | 89.7 nM | 26.9 nM | – |
| AAUAACAAGUAGAUCCUAAACAUGAGGAUCACCCAUGUGCUCGUCUUGUAAAGUACUAUCACGAAAGUGAUAGUACA (Eterna round: R97, puzzle: Sensor, turn-off variant 1) | – | 84.5 nM | 85.2 nM | – | – | – |
| ACUCAAUAGUAGGAUAUCAUCAAACUAUUGUGAUGAGAAGGACUAACAUGAGGAUCACCCAUGUUAACGUGAAG [Mod of Brourd 4 - Jieux - Exclusion 6] (Eterna round: R97, puzzle: Exclusion 6) | – | 23 nM | 20.3 nM | – | – | – |
| ACUUGUUGUCCUUGAUAUUACAUGAGGAUCACCCAUGUUAUUGUGAUUAUGAUGUGUAAGUUUGUUGCUCGUCUUAU [JR_STOV1_Sub065] (Eterna round: R97, puzzle: Sensor, turn-off variant 1) | – | 54.3 nM | 60.4 nM | – | – | – |

| Sequence | apparent KD of MS2 coat protein [1] | apparent KD of MS2 coat protein (input ligand: FMN 200 uM) | apparent KD of MS2 coat protein (input ligand: none) | apparent KD of MS2 coat protein [2] | apparent KD of MS2 coat protein [3] | apparent KD of MS2 coat protein [4] |
| --- | --- | --- | --- | --- | --- | --- |
| CCUCCACAUGAGGAUCACCCAUGUCAGGAUAUCGUGUGUUUUUUUUCGGCCGCGCGUGCGAGAAGGGACGUCUU (puzzle: Exclusion 1) | 19.1 nM | – | – | – | – | – |
| AAAAGGCAGGGAGGAUAUGCUUACCUGGGUCGUCUUCAAACAUGAGGAUCACCCAUGUAGUCGACGCAGAAGGCCCUCAAAGCC [Mat - Exclusion NG 2 - Mod of JL - D58] (Eterna round: R96, puzzle: Exclusion NG 2) | – | 39.6 nM | 22.7 nM | – | – | 21.2 nM |
| UGUGCAACAGGAUAUAUGUGGCGUCCGUGAGGACGAAGGUUACAUGAGGAUCACCCAUGUAGAAGGGUUGUACU [Mat - Exclusion 2 - JL Mod - D24] (Eterna round: R97, puzzle: Exclusion 2) | – | 218 nM | 68.5 nM | – | – | – |
| GAGCCAUCGUGAGAUGGCUCAAUUACAUGAGGAUCACCCAUGUAGGAUAUCGAUUGCUUUGCAGUCGAGAAGGACAUGUUUAAU [JL ENG3 3.00] (Eterna round: R96, puzzle: Exclusion NG 3) | – | 67.4 nM | 30.3 nM | – | – | 25.8 nM |
| GGAUCGAAUGUGAGGAUAUACCACUGGAUACAGUGGUAGAAGGCACAUGAGGAUCACCCAUGUCCUUACGAUCC [Fiskers BMX 4 - 47] (puzzle: Brourd's mod of Exclusion 4) | 74.2 nM | – | – | – | – | – |
| ACACAGCGAGGAUAUACAUGAGGAUCACCCAUGUGGUGGCAGUUACGGUAGGACUAGUGUAGAAGGUGCCGUGG [EX3 #28] (Eterna round: R97, puzzle: Exclusion 3) | – | 600 nM | 588 nM | – | – | – |
| GUUGUUUAUGUAGGAUAUGCCAGGCGAGCCUAAGCAGAAGGACAUGAGGAUCACCCAUGUAUUGCGGUCUGCGUUCAGAUCGCU [salish99_ExNG1_r4_017] (Eterna round: R96, puzzle: Exclusion NG 1) | – | 63.5 nM | 23.7 nM | – | – | 18.3 nM |
| UCUCGCGGGCAAGGAUAUCCUACGCUGUUCUGGCCCGUGUUUGUUACAUGAGGAUCACCCAUGUGGGAGAAGGUGCACCAGGGC [Design 41] (Eterna round: R96, puzzle: Exclusion NG 2) | – | 62 nM | 76.4 nM | – | – | 36.5 nM |
| UAUUUAUAUGAAGGAUAUACUUAACAUGAGGAUCACCCAUGUGGUGUUGUGAGUGAGUGAGUUUAGUAGAAGGUCAAUUAUUUU [JMF's solution 30] (Eterna round: R96, puzzle: Exclusion NG 2) | – | 282 nM | 222 nM | – | – | 131 nM |
| UUAAUAAGUGUGAGGAUAUGCUGGUCCUUGGAUCAGCAGAAGGCACAUGAGGAUCACCCAUGUACAAUAUAUUA [Mat - Exclusion 4 - JL Mod - D31] (puzzle: Brourd's mod of Exclusion 4) | 33.9 nM | – | – | – | – | – |
| AGUACUAACACGAAAGUGUUAGUACAAUAAGCUUGUGAAACAUGAGGAUCACCCAUGUCCUCAUUAGCUCGUCUUAU [salish99_TOv2_r3_050] (puzzle: Sensor v3, turn-off variant 2) | 451 nM | – | – | 184 nM | 172 nM | – |
| CUGAUGUCAGGAUAUCGGUGGCUCACUAAUGUGUGCCAGACCGAGAAGGGACAUGAGGAUCACCCAUGUCUUUA [Exclusion 4 (Mod5b of #36 by Marzena11)] (Eterna round: R97, puzzle: Exclusion 4) | – | 42.4 nM | 26.2 nM | – | – | – |
| UUGUUGUGUGUAGGAUAUGCGUGUUAUUAUUAUGCAGAAGGACAUGAGGAUCACCCAUGUGUAUUAUUAUUAUAUAUUAUAUAU [Title] (Eterna round: R96, puzzle: Exclusion NG 1) | – | 23.8 nM | 23.5 nM | – | – | 17.1 nM |
| UUGGUUGUGGUAGGAUAUCCGUUGGAAACCUUCGGAGAAGGACCACAGUCACUGGGUCUUUGUCUGGUGGACGGUGAAAACCGU [pwkr exNG1 F6.22] (Eterna round: R96, puzzle: Exclusion NG 1) | – | 138 nM | 730 nM | – | – | 498 nM |
| AUAAAUCAUGUAGGAUAUGCGUAGCGAAGCUAUGCAGAAGGACAUGAGGAUCACCCAUGUCUUUCCGUCUGCGUACAGACGGAA [Mat - Exclusion NG 1 - Mod of JL - D42] (Eterna round: R96, puzzle: Exclusion NG 1) | – | 149 nM | 24.1 nM | – | – | 20.1 nM |
| AAAUGCAAGUAAAGAUUCUACAUGAGGAUCACCCAUGUGCUCGUCUUAUAAAGUACUAUCACGAAAGUGAUAGUACA [Sensor 3, v1 - 35] (puzzle: Sensor v3, turn-off variant 1) | 100 nM | – | – | 14.2 nM | 14.2 nM | – |
